Assay results from article PMC3765158, “Structure Determination and Biochemical Characterization of a Putative HNH Endonuclease from Geobacter metallireducens GS-15” (PLoS ONE, 2013).
Blank lines part the entries; values can stand above or below the molecule they belong to.

Key:
[1] = biological target: non-His-tagged Gme HNHE (Gmet_0936 cleaved off the intein-CBD fusion, with non-native C-terminal residues LEGSS) (Geobacter metallireducens GS-15); assay: SEC; Superdex 200 5/150 GL; 10 µl of 4 or 8 mg/ml protein injected; Kav against the standards ribonuclease A, ovalbumin and conalbumin
[2] = biological target: the molecule itself; assay: SEC-MALS; analytical gel filtration on Shodex 802.5 at 4°C in 100 mM NaCl, 0.025% NaN3, 100 mM Tris-HCl pH 7.5, static light scattering and refractive index detectors; Debye analysis; data not shown

stoichiometry N [1]: 2
Molecule: non-His-tagged Gme HNHE (Gmet_0936 cleaved off the intein-CBD fusion, with non-native C-terminal residues LEGSS) (enzyme)

B1: Gmet_0936 protein (putative HNH endonuclease) from Geobacter metallireducens GS-15, with C-terminal LEH6 (enzyme, UniProt Q39X46 1-104, looked up)
chain: MNYFIVEVSEQEVKREKEKARELRRSQWWKNRIARGICHYCGEIFPPEELTMDHLVPVVRGGKSTRGNVVPACKECNNRKKYLLPVEWEEYLDSLESEPSDGEG
modifications: selenomethionine in place of methionine (selenomethionine-labeled)
notes: Gmet_0936, putative HNH endonuclease of Geobacter metallireducens GS-15; full-length gene in a pET21 derivative (pGmR87-21.1); molecular mass with tag 13.3 kDa; The SEC with static light scattering used a thawed aliquot of the crystallization stock (the same protein as in the crystal); also called Gme HNHE (H6); Gmet_0936 (H6); source: E. coli BL21 (DE3) pMGK, selenomethionine-labeled, purified …
stoichiometry N [2]: 2
